Experiment [1] addresses T1, CASK CaMK domain (residues M1-A310) (human, UniProt O14936 1-310).
T1 sequence (looked up): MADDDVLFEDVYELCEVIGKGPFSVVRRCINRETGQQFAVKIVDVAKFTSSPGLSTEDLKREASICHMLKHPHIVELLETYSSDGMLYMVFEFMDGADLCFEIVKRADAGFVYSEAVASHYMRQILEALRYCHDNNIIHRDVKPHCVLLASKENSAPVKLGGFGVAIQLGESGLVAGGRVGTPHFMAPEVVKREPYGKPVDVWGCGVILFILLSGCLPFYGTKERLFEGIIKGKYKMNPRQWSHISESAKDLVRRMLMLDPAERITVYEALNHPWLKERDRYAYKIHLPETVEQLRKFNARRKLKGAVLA
The experiment in a line: SPR. In general terms: SPR reads the build-up and loss of mass on a sensor chip optically.

In experiment [2] the target is T1, CASK CaMK domain (residues M1-A310). Description: SEC. On the technique in general: SEC sorts molecules by how far they enter the pores of the column.

B1: Caskin1 CID (residues I375 to G471) (domain or fragment, UniProt Q8WXD9 375-471, looked up)
chain: IWVLRKPFAGGDRSGSISGMAGGRGSGGHALHAGSEGVKLLATVLSQKSVSESGPGDSPAKPPEGSAGVARSQPPVAHAGQVYGEQPPKKLEPASEG
Take B1: in experiment [1], the Kd – broadly, the equilibrium constant for the complex coming apart – is 7.5 ± 0.5 µM.

B2: Caskin1 CID-SAMs (residues I375 to L605), wild type (domain or fragment)
chain: not shown
For the molecule B2, in experiment [2], the binding result is reported as “binds”.

Source of the values: article PMC3158819 (Journal of molecular biology, 2011).
